Measurements as given in patent publication US20190202914A1 (HARBOUR BIOMED SHANGHAI, published 2019).
Positions count from the first letter of the chain named.

T1: human CTLA-4 expressed on cells (293-hCTLA-4 cells; CTLA-4-expressing CHO-K1 cells) (human, UniProt P16410 36-223)
T1 construct: also called CD152; cell-expressed CTLA-4
T1 sequence: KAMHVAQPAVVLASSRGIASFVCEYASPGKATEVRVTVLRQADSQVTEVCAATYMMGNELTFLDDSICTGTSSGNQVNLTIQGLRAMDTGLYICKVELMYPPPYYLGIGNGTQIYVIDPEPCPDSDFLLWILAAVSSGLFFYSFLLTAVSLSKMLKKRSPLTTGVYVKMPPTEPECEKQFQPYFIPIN

T2: cyno CTLA-4 expressed on 293 cells (293-cynoCTLA-4 cells) (cyno, UniProt G7PL88 36-223)
T2 construct: also called cynomolgus CTLA-4
T2 sequence: T1 sequence with S14N, L106M

T3: Recombinant human CTLA-4-his protein (CT4-H5229, Acro Bio) (human, UniProt P16410 36-161)
T3 construct: extracellular domain; Bought protein; also called Human CTLA-4^ECD-his; not shown: his tag
T3 sequence (looked up): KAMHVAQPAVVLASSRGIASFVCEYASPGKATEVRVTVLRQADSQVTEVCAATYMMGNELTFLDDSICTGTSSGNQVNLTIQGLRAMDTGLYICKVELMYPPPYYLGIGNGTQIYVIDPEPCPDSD

B1: CL24 (antibody, human IgG1, V domains shown)
VH: EVQLVETGGGLIQPGGSLRLSCAASGLNVSRHYLSWVRQAPGKGLEWVAVIYSGGGIEYVDSVKGRFTISRDNANNTLYLQMRSLRTEDSAVYYCARAIPRPHGSDIWGQGTMVTVSS
notes: Human heavy-chain-only antibody (HCAb): two heavy chains, no light chain
B2: CL11 (antibody, human IgG1, V domains shown)
VH: EVQLEETGGDLIQPGGSLRLSCTASGFNVSRIYMSWVRQAPGKGLEWVSVIYSGGSIYYADSVRGRFTISRDSSTNTVFLQMNSLRAEDSAVYYCARAVPSAPSSFDIWGQGTMVTVSS
notes: Human heavy-chain-only antibody (HCAb): two heavy chains, no light chain; also called clone 11
B3: CL30-dPTM (antibody, human IgG1, V domains shown)
VH: B2 VH with N28T, F79Y, S101H, S105N, I108K, M114R
notes: HCAb variant with PTM removal
B4: CL11-dPTM (antibody, human IgG1, V domains shown)
VH: B2 VH with N28T
notes: HCAb variant with PTM removal
B5: CL20 (antibody, human IgG1, V domains shown)
VH: EVQLVESGGGLVQPGGSLRLSCAASGFTFSNYWMHWVRQAPGKGLVWVSRINSDGSNTTYADSVKGRFTISRDNAKNTLYLQMNSLRAEDTAVYYCARWFGEHYYGMDVWGQGTTVTVSS
notes: as for B1

How the values were obtained:
[1] = target: T4, Recombinant mouse CTLA4-his protein (CT4-M52H5, Acro Bio) (mouse, UniProt P09793 36-161); test: ELISA on coated recombinant mouse CTLA4-his, HRP anti-human IgG (H+L), OD450
T4 construct: Bought protein; also called murine CTLA-4; not shown: his tag
Method: Recombinant human or mouse CTLA4-his protein (CT4-H5229 for human protein, CT4-M52H5 for mouse protein, Acro Bio) was diluted in PBS to a concentration of 2 μg/mL, and 100 μL of the diluted CTLA-4-his protein was added per well to ELISA microplates, which were incubated overnight at 4° C. to coat the plates with the recombinant proteins. The plates were then blocked with ELISA blocking solution (containing 2% BSA, 0.05% (v/v) Tween-20, pH7.4 PBS buffer, w/v) at 37° C. for two hours and then incubated with anti-CTLA-4 antibodies with various concentrations for 1 hour at 37° C. The plates were washed and incubated with horseradish peroxidase (HRP) conjugated goat anti-human IgG (H+L) antibody (A18805, Life technologies) at 37° C. for one hour. 100 μL of tetramethylbenzidine (TMB) were added, and the plates were incubated at room temperature for 15 minutes. 50 μL of 1N HCl were added to terminate the reaction, and the OD450 nm was determined by an ELISA plate reader.

[2] = target: T1, human CTLA-4 expressed on cells …; test: flow cytometry (MFI) on 293 cells expressing human CTLA-4, Alexa 488 anti-human (H+L) detection
Method: (§1) The culture medium was aspirated, and the cells were washed twice with HBSS (Hanks Balanced Salt Solution, Invitrogen). The cells were treated with enzyme-free cell dissociation solution (Versene solution, Invitrogen) and collected. The cells were then washed twice with HBSS, cell counts were determined, and cells were resuspended with HBSS at 2×10⁶ cells/mL. BSA was added to the cell suspension to a final concentration of 1%, and the cells were blocked for 30 minutes on ice and then washed twice with HBSS. The cells were collected after centrifugation and resuspended in FACS buffer (HBSS+1% BSA, v/v) at 2×10⁶ cells/mL. 100 μL of the cell suspension were then added to each well of a 96-well plate. 100 μL of purified anti-CTLA-4 antibodies from Example 2 or control antibodies were added to each well of the 96-well plate and incubated for 1 hour on ice, wherein the heavy chain and light chain of the Ipilimumab analogue had amino acid sequences of SEQ ID NO.: 199 and SEQ ID NO.: 200, respectively. Cells were washed twice with FACS buffer, and 100 μL of Alexa 488-labeled anti-human (H+L) antibody (Invitrogen) were added to the 96-well plate and incubated for 1 hour on ice. The samples were washed three times with FACS buffer, and 100 μL of fixation buffer (containing 4% paraformaldehyde, v/v) were added to each well and incubated for 10 minutes. The cells were then washed twice with FACS buffer and resuspended in 100 μL of FACS buffer.

[3] = target: T2, cyno CTLA-4 expressed on 293 cells …; test: flow cytometry (MFI) on 293 cells expressing cynomolgus CTLA-4, Alexa 488 anti-human (H+L) detection
Method: as §1

[4] = target: T1, human CTLA-4 expressed on cells …; test: cell-based blocking assay, flow cytometry: % blocking of biotinylated B7.1 ECD-Fc binding to 293-hCTLA-4 cells
Method: Cell-Based Receptor-Ligand Binding assay was performed to determine the ability of the anti-CTLA-4 antibodies to block the binding of CTLA-4 to its ligands B7.1. Recombinant B7.1^ECD-Fc protein (B71-H5259, Acro Bio) was biotinylated using EZ-LINK NHS-PEG12-Biotin (Thermo Scientific#21312) according to the manufacturer's instruction. Biotinylated B7.1^ECD-Fc protein was concentrated and free label removed by using Amicon centrifugal filter (10 kDa cut off). The extracellular domain of B7.1 corresponded to amino acids Val35-Asn242 of Uniprot database protein P33681.
The culture medium was aspirated, and the cells were washed twice with PBS. The cells were treated with enzyme-free cell dissociation solution (Versene solution, Invitrogen) and collected. Dissociation solution was neutralized by the addition of 8 mL of culture medium, and cell counts were determined. Cells were centrifuged at 300 g for 5 minutes and resuspended in blocking buffer (containing 2% BSA, pH 7.4 PBS buffer, w/v) at 1×10⁶ cells/mL. The cells were blocked for 15 minutes at 37° C. Meanwhile, the wells of 96-well round-bottom plates were blocked with 200 μL of blocking buffer for 1 hour at 37° C. The blocking buffer was discarded, and 200 μL of cells were dispensed to each well of the 96-well plates (2×10⁵ cells/well). The plates were centrifuged at 500 g for 5 minutes, and the supernatants were discarded. The cells were resuspended in 100 μL of anti-CTLA-4 antibodies prepared in blocking buffer with varying concentrations. 100 μL of biotinylated B7.1 ECD-Fc (60 μg/mL in blocking buffer) were added to each well of 96-well plate and mixed by shaking gently. The plates were incubated at 4° C. for 90 minutes and washed twice with 200 μL blocking buffer. The blocking buffer was discarded, and the cells were resuspended in 100 μL of streptavidin-Alexa 488 solution (Invitrogen, 1:500 in blocking buffer) and incubated at 4° C. for 1 hour. The plates were washed three times with blocking buffer and added with 200 μL of blocking buffer.
The mean fluorescence intensity (MFI) was determined using FACS Calibur (BD).

[5] = target: T1, human CTLA-4 expressed on cells …; test: flow cytometry on 293F-hCTLA-4 cells
[6] = target: T3, Recombinant human CTLA-4-his protein …; test: ELISA of 293 supernatants on coated human CTLA4-his

| Binder | binding result [1] | EC50 (read off the curve) [2] [nM] | EC50 (read off the curve) [3] [nM] | binding result [5] | further results |
| --- | --- | --- | --- | --- | --- |
| B1 | no binding (tested: 533.3 nM) | ~2 | ~1 | – | – |
| B2 | no binding (tested: 325.5 nM) | ~2 | ~1 | – | IC50 (read off the curve) [4]: 10 to 20 nM |
| B3 | – | – | – | binds | – |
| B4 | – | – | – | binds | – |
| B5 | – | – | – | – | binding result [6]: binds |
